# Measurements from a protein production outcome set (Wang et al. 2014).
# Test: label from the status in PepcDB records
# 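Further: failed if final PepcDB status was selected cloned or expressed and not failed if soluble or beyond.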
row,Sequence,protein production
1,MKTVRCSILGFGAIGQGVAEVLLMKKEYLESIGLEIIVVAVVDSRGATINPEGVDLADCLARKRTTGTVAIEKITGVEVIKSIDHDLVIETTPTNIVTGGAGLQNMFAAFEIGKDVITSNKGPLTLKYRELMEAAKVAGSSFRFEATVGGSMPIINLANEVLAGNRLKSIKGILNGTCNYILTRMLEERASYKDILAESMELGIAETDPTYDVDGIDTACKLVILANAIFGLNATYKDVEVTGITKITPEALEMAYERGHVIKLIGEVSRERIHVAPRLVPINHPLDVRGTLNVASIDTELAGEITVTGKGAGPVETASAILSDLIAIYGNQLEHHHHHH,not failed
2,MAVYHLLLSSPPSLLLLPPSPRRPNLTLIRRIPAHPRLGNSTSLLSSSSPVIRKILVRSTLREDQPIASDSESSPTLLIGEDSAAFELGKQKLVSWVYFGVVLGVVLFILNVVWIDNSTGFGKSFIDAVSNISGSPEVAMLMLILIFAIVHSGLASLRDIGEKLIGERAFRVLFAGISLPLAMSTIVYFINHRYDGSQLWQLQGVPGVHEAIWVANFVSFFFLYPSTFNLLEVAAVDKPKMHLWETGIMRITRHPQMVGQIVWCLAHTLWIGNTVAASASLGLIAHHLFGAWNGDRRLAKRYGEDFESIKKRTSVIPFAAIFEGRQVLPEDYYKEFVRLPYLAITALTVGAYFAHPLMQGASFRLHW,failed
3,MDFSPPTTTADQSRRGFLKKSLAVSATVAAIGSLPRLSAAEPLTQRYPDPLVGVLDDSFLDIRIFNASVEKLATGMRWAEGPVWVGDGRYLLVSDIANNRIMRWDEVTGALSVYREHSNFSNGMCRDRQGRLLVCEGSSTTSEGRRVTRTEYNGRITVLADSFDGKPFNSPNDIVCKHDGSIWFTDPTFQANSDYEGHKVKQEQPFGVYRIDPSSGKVSRVIDDLAGPNGLCFSPDEKTLYVVEGRAKPNGLIWAIAVNEDGTLGERRKHVEGLEYAAIDGIKCDESGNLWCGWGGNGNPKADLEKLDGVRVFNPQGKAIGHISLPERCANLCFGGREGNRLFMASSHSLYSVFVNARGATLA,failed
4,MEWKLERTAPRRVRTEEEMLWESIMRVLSKDLKQKRSQDSANVLDSVNATYSDFKSNFAKRLSAEVPVASSPITTRWQQSQTRALSSDSFGEEQSTTYLPEASGSVLKTPPEKETLTLGSCKEQLKTPSKGISETSNSALHFCKAPHAMDRDWKESVASKGQKCLKQLFVTQNVVQQANGKMQLCEQSECVWKGCKDGVRDESFHLKSSGDINDSILQPEVKIHITGLRNDYYLNILDWSFQNLVAIALGSAVYIWNGENHNGIENIDLSLTCNYISSVSWIKEGTCLAVGTSEGEVQLWDVVTKKRLRNMLGHLSVVGALSWNHFILSSGSRLGRVYHHDVRVAQHHVGTLRHKQAVCALKWSPDGRLLSSGCSDGLLTIWPHDPGASAQGQPLKVITQSTAVKAMDWCPWQSGVLAIGGGMKDGRLHILDINAGKSIQTPSTNSQICSLIWLPKTKEIATGQGTPKNDVTVWTCPTVSRSGGFFGHRGRVLHLALSPDQTWVFSAAADGTASVWNCY,failed
5,MLAALFSIAAVFGFHAEDEPYIVTLPWYELFSSAAKAVAGTIHNPFGLFGARVSVFFIRVLLGYPSVMPLFGFLVLGWHLFRAKPLGPGLFFLVYTLLMALDLSAMFGLSMLPLADLMSGATGRMMASFLSTVIGYPGAWALTAIIAAVLTFYMGRDFIVDTIAGVSGFFGKLLATVQAIRAERHRKRREKEEMRVRKKAERMAAVLEKEQRKRDKKAQRARKAGDASKQKAAPFENSPETPAPVMDVEPAPPLLNPAVSEPVVIPAEVEEIRTPEPAPVRPEEGPEMIIKPGVQEAEADLDERALKVRTHDHVKYRFPSIDLLRRPKDEDESYDERHLAETKDRLLEKLRIYKIDVIRIATTVGPRVALFELELAPEVKISRIKSLENDLAMAMASSSGGIRIIAPIPGKNAIGVEIPISKPRPVVMRSVLQVEKFKNNSMALPIVLGKSISNEVIVDDLAAMPHLLIAGATGAGKSVAINVLLTSLLYSKKPDEVKFVLIDPKRVELKPYKLLKDHFLPKIPGMEEQIIVTDPQKAVSALRSVVREMEHRYELLEQCGVRNIGEYNRKMKDEAMFYLVVVVDELADLMITAGREVEEPITRLAQMARAVGIHLIVATQRPSVDIITGIIKANFPSRIAFQVASKVDSRTILDVSGAEQLLGSGDMLFQSAKMSKPQRIQCPYISLSEVDAITEFIGQQPPLRAECMLPEPPSSSGNGSSSGFDQDRGRRDSMFEEAARLVVMHQQASVSLLQRRLRLGFSRAGRVMDQLEQSGIVSAGDGSKPREVLVKNEDSLELLLRNLD,failed
6,MNQEKLLALMMDLHQDGARQGPGSETETLRALELTRIDPLAKLQVADIGCGTGASTLVLASKLQNAQITAIDIFPEFLDVLSTRAKVMGYSEKIETLTESMDKLSFADESLDLIWSEGAIYNLGFAQGIECWKPMLKTGGVLAVSEITWLNPLPPEEIRQHWNTEYPEIATASEKIAILEHGGYDLIGYFILPSTNWLDSYYTPVEERIHDFLKRHRGDLEAEELIKMERREMDLYSRFKNWFSYGFYVARKR,failed
7,MIFMHPKTLEILKMFEEINKIPRRSKNEEKLALWLMEWAKNHNFEAKTDALNNVLIKVPPTPGYENSPAIVLQGHMDMVCEKCRDSGHDFSKDPIICIYEGDWLRGDGTSIGADNGIALAIGLVLAESGIKGEIEHPPLELLFTVDEETGLTGASGLEEDFFEGRILLNLDSEDEGIFILGCAGGQNSRIFLPLQWESFDYGKGSGFGLFRISAEGLEGGHSGVEIHRQRANGIQLLARMLSALKEKVGKENLRLVFFSGGSVHNAIPNYAEAFIVLSRNNEKQAEDFVSGLQKSFRGEYAVSDPEITLQLKEVENGIIFEASGGKITRKEVPSDRVFSVETEEKLYGVLLGMPHGVHRVSDTIPGLVETSNNLATVRTGEKEVRIVSSQRSSVMSRLAEVTEKVETVAKLAGARVEHECGYPAWEPDLQSGLLMKCRHAYSGTFGKEPEIKVVHAGLECGVIGSKCECIEMISFGPTIKDPHSPAERVYIPSIEKVWVFLENLMKSYRLEHHHHHH,not failed
8,VRVLSYDKEKLNWLYKDPQGLVQGPFSLTQLKAWSDAEYFTKQFRVWMTGESMESAVLLTDVLRL,not failed
9,MEDHHHLPENLKPFFHRATEAQERLAKLEAALASTKTDIPDAKLVEENKQLQSKLEEANATVKQEQTKVKDLTIENAKHKYRILHLVRALKDADQKLERLSK,failed
10,MSTRLCEPSLRDDGAQRGTPASHGKWCDTGAFKLDETPSPVVANVSSTSDASFQFNRTPSPGKHQNHAADRSMWSLDDFVIIRKLDEGRFGKVYLAREKQSKCAVVLKCISKDMIRFHSLAHQLQREVELQEYAGRYHKNVLRLFAYFWDDVRIVLVLEYADSGTLQDLLDCYREKEQRSSLPDDKVRTILLQLLSALAFLHERDIIHRDVKPDNILFHGEKLLLADFSWAVRVNNSDPRYCRRHTVCGTLDYLAPEQVLKRGCTTKADLWAVGVVAYRMLCGFLPFEMLDARDVCSCIASGAIRYPSQLSPTARHFLQGLLRVDEALRFSCQEALNHPFMRGDCNCRISNRYIESKHRARAEEPVLQHQGSFDTT,failed
11,MKILFIKLSALGDVLASTPLFASTKAEHPDWFVGHVVARPYADATRNNAHVDAQFVVDSPLSKGLAEKIGVAVGIWRYVLRERYDIAVVLHRSFVLQLICRLALVKKVVGYEGPFSFILNHSIPFSMRGNRSNLELRLLKSAGIIRDEKKKLRFDIDFGNVDPSRLRALPDAFIAVNAGGGNADAHAANKLWPAEHYGALIKQLPLPAVMLGHGAADERIRDRVAATGATFVDLIGKTNLDETAVVLRRSSLYVGNDSALLYLAASLGVTTIGIYGPTDPAAFSPLGANNLWLSGKTSCAPCYSSFDGIGGRMYTCADNICMKAVTVESVSERIHAALHQDQNLQVAGPDVVGSGQGGAASEAGDRARAHARAGHQAVGDGGFAVPVSRRPPVGARVSGRDD,failed
12,MDGGDDGNLIIKKRFVSEAELDERRKRRQEEWEKVRKPEDPEECPEEVYDPRSLYERLQEQKDRKQQEYEEQFKFKNMVRGLDEDETNFLDEVSRQQELIEKQRREEELKELKEYRNNLKKVGISQENKKEVEKKLTVKPIETKNKFSQAKLLAGAVKHKSSESGNSVKRLKPDPEPDDKNQEPSSCKSLGNTSLSGPSIHCPSAAVCIGILPGLGAYSGSSDSESSSDSEGTINATGKIVSSIFRTNTFLEAP,not failed
13,MTKQPDLLKVDWSAIPAPDDDGAAAHLPGARIQPVALPATDGSSVTLSSLPGRTVLFIYPRTGVPGQISLVDDWDMIPGARGCTPQTCSFRDLFTDLKTAGADAVFGLSTQSSAYQSEMATRLHLPFPVLSDESLELTRALNMPTMQVAGMTLLKRMALIIDDGRISHVFYPVFPPDRNAGDVLEWLKANPR,failed
14,MSKSTKVDLVFLFFTAIWGLSFPLTKNVLGYTSIFAFLSLRFTSAAVILIIIFWKKLKLINTKIILYGSLIGLMFFGSLAFQVASLRFTTSSNSSFISALSVVIVPLVSAGYYKKKIDFSCVLGVLFAVVGLFFISGGVNFKLNIGDLFSFLCAICITFQIIFIDIFCSKCDSALLSLIQVVFCAIFYNIVLFIIGTKPIVFNTQLTVSIFITGILGTAVAYTGIVFLEKFTSPTHTALIFCAEPVFATIFAMFIPNNNGSCESITINTFIGCGVILLSMVISELKIGNNIPQKIIKL,failed
15,MKMIQFWFDFASTYSYPAAMQIRQLKDEYRFSLHPFLLGGIFQKQGLNDSPFNAYPVKGQYMWRDLERICQKLDLKFHRPVLFPQNGLLAARIACQYASAPWIFDFICSVYQANFVQNLDIGQPETISQILQNMQLDCNDIIMTSTTDTAKQTLKQNGMIAESLHIFGAPSFVVENELFWGQDRLQDAIDWSQR,failed
16,MPPSTLGLTPPFDATLLTTRPPCSRRHISRSPGARRPSPGLLTCLQPNVCPRARSAFLAISNGSRQQSGPARADAFHPVSISPFYFYSDSYEDVFMPITTKLKAVSLGVSLALAGLLVGCNQNDSDPLVKDDAYYRGQAEAMVAKLTLGEKLDLLSGPGYGSANGAINVKQDVPGVAGYINGVLRSADGIDIPALKLADGPAGVRINANRDGDSASYYATAWPIGSLLASSWDVKLVKAVGEAMGDEVRQYGVDILLAPGMNIQRNPLNGRNFEYYSEDPLLTGKIGAAMVNGVESNGVGTTIKHYFGNNSETNRNQINDIGEPRTFREIYLRGFQIAVDEAQPWAVMTSYNKVNGTYVNERRDAVTDLLRGEWKFDGLVMSDWFAGDVANNAYKQVLAGQDLIEPGNVKEQLQQSIEHGDLDEAKVNEAAIHILTQVMKSPSYNQLAISNSPDLIAHAKLARQAGAESMVLLRNDAAALPLAASSTLASFGINQINTYKGGTGSGDVNAASTTTIAQGLAARFPVNEALQSYYRDFYENNKVYHEGQFGAKGYYTCAEAPISGDLAALIANAATTQQAAVISIGRQAGEGADRSSGKGDYLLGDDERALIDAVSSAFHAQGKKVVVVLNVNGVIDTAQWSDKVDGILLAYMAGQETGHAVADVLSGAVNPSGKLAQSFPHSYASVPSAGTFPGEDTDGDGEPDDLYYNEGIYVGYRYYSTFEQAVSYPFGFGLSYTSFSYTSPAIASNTLEGGSAGNLVLTATITNTGAVAGKEAAQVYVTAPEVKLKKPLIELKAFAKTAQLAPGASEQLSFTIPASILASFDEASNQWIVEPGRYSAYISPSSDVSASTPVSFTVSKEIVVSNTTPGALALPAGVDPASVTTITR,failed
17,MDAEEKDGVLYFEGQVLTGAKVNSVIDHTLLDFGCEAEETIVSCGEDTSNPHGTTEGPLRANAPIILDIFPRSKKKRYFADMTRTVLRGEASEKLKEMYETVLVAQQKALEMVKPGIHSSEIHRAVCDLFEARGYHTYRSGSKAGFTHSTGHGVGLDIHELPSVGESGVLLETGNVITIEPGLYYPGIGGIRLEDMVLVTKTGYENFTGLEKKFVLKSFYNLEHHHHHH,not failed
